Data published in patent US20120121557A1.

Target: ErbB4 on primary adult rat ventricular cardiomyocytes (rat) (UniProt Q62956)
Experiment: cell-based or functional assay

Chain of UniProt Q62956 (Q62956 26-1308): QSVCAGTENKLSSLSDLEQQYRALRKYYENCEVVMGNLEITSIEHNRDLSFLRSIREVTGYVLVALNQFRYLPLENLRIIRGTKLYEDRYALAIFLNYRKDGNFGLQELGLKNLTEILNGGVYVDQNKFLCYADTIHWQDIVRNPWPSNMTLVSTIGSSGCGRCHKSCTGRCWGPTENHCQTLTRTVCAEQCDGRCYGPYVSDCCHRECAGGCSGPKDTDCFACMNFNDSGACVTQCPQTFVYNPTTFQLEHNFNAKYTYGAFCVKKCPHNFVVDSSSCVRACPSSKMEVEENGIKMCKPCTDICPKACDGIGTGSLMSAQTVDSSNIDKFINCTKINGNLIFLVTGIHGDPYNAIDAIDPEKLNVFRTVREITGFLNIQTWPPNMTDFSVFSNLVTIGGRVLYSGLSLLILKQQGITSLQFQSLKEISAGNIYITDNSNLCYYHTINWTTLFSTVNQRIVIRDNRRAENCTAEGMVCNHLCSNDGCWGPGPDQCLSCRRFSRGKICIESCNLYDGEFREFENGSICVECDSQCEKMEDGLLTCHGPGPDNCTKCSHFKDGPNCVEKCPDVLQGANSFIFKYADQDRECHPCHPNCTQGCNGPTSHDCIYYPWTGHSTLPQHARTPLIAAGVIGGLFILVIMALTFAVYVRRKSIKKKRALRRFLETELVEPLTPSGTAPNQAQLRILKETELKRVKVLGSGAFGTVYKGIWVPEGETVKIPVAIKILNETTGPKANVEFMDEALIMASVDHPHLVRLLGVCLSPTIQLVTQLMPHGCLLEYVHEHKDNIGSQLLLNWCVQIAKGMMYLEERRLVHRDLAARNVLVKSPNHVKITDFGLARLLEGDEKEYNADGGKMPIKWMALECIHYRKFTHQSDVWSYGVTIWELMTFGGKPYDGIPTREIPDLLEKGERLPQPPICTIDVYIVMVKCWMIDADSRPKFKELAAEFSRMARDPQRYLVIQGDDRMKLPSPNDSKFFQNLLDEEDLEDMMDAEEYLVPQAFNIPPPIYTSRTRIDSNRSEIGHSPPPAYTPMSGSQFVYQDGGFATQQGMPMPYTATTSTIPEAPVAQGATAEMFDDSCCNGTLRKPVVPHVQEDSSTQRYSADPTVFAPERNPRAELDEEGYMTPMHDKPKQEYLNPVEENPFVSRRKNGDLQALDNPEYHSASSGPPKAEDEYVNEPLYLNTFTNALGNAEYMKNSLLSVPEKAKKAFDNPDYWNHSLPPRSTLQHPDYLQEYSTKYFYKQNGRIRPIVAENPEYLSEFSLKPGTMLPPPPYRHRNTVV

half-maximal stimulation EC50 of NRG1-induced DNA synthesis (BrdU uptake) in primary adult rat ventricular cardiomyocytes: 0.04 nM
Substance: NRG1 (EGF-like domain, amino acids 176-246), R&D Systems (from UniProt Q02297-11 121-191) (ligand)
